Laboratory results: paper PMC4830470 (Nature, 2015)

Target: the molecule itself
Experiment: SEC

B1: human class A J-protein DNAJA2 (JA2), wild type (natural protein)
chain: not shown
B1 was tested, and the “stoichiometry N” value was 2.
